The values that follow come from the DeepSol protein solubility set.

The nature of the data set: soluble on expression in E. coli; label from the status in PepcDB or PDB records.
On to “MNGHISNHPSSFGMYPSQMNGYGSSPTFSQTDREHGSKTSAKALYEQRKNYARDSVSSVSDISQYRVEHLTTFVLDRKDAMITVDDGIRKLKLLDAKGKVWTQDMILQVDDRAVSLIDLESKNELENFPLNTIQHCQAVMHSCSYDSVLALVCKEPTQNKPDLHLFQCDEVKANLISEDIESAISDSKGGKQKRRPDALRMISNADPSIPPPPRAPAPAPPGTVTQVDVRSRVAAWSAWAADQGDFEKPRQYHEQEETPEMMAARIDRDVQILNHILDDIEFFITKLQKAAEAFSELSKRKKNKKGKRKGPGEGVLTLRAKPPPPDEFLDCFQKFKHGFNLLAKLKSHIQNPSAADLVHFLFTPLNMVVQATGGPELASSVLSPLLNKDTIDFLNYTVNGDERQLWMSLGGTWMKARAEWPKEQFIPPYVPRFRNGWEPPMLNFMGATMEQDLYQLAESVANVAEHQRKQEIKRLSTEHSSVSEYHPADGYAFSSNIYTRGSHLDQGEAAVAFKPTSNRHIDRNYEPLKTQPKKYAKSKYDFVARNNSELSVLKDDILEILDDRKQWWKVRNASGDSGFVPNNILDIVRPPESGLGRADPPYTHTIQKQRMEYGPRPADTPPAPSPPPTPAPVPVPLPPSTPAPVPVSKVPANITRQNSSSSDSGGSIVRDSQRHKQLPVDRRKSQMEEVQDELIHRLTIGRSAAQKKFHVPRQNVPVINITYDSTPEDVKTWLQSKGFNPVTVNSLGVLNGAQLFSLNKDELRTVCPEGARVYSQITVQKAALEDSSGSSELQEIMRRRQEKISAAASDSGVESFDEGSSH”, for which the “soluble on expression in E. coli” value was “soluble”. Regarding “MSILHMPLKIKDITIKNRIMMSPMCMYSASTDGMPNDWHIVHYATRAIGGVGLIMQEATAVESRGRITDHDLGIWNDEQVKELKKIVDICKANGAVMGIQLAHAGRKCNISYEDVVGPSPIKAGDRYKLPRELSVEEIKSIVKAFGEAAKRANLAGYDVVEIHAAHGYLIHEFLSPLSNKRKDEYGNSIENRARFLIEVIDEVRKNWPENKPIFVRVSADDYMEGGINIDMMVEYINMIKDKVDLIDVSSGGLLNVDINLYPGYQVKYAETIKKRCNIKTSAVGLITTQELAEEILSNERADLVALGRELLRNPYWVLHTYTSKEDWPKQYERAFKKHHHHHH”, the “soluble on expression in E. coli” value is given as “soluble”. As to “GHMSTPLTLIATITAAPGHAEALERELRALVAPSRAEAGCLQYDLHQDRHDSHLFYMIEQWRDDAALERHQNTEHFLRFSRGNEALLQNVKIDQLYRLA”, the “soluble on expression in E. coli” value was “soluble”. On to “MAHHHHHHMLSRVAAVKAPRTHNRRRVTGSSGRTREGGESEPRRPNMSRRVFPSAVLLLLVTMMCCDRGAATAQVEKATDASTPSGSALTGAITAEGSASGGVERPQRVDLFVPQTKQVLQKTGTDSGRRDSFVSPSLVSAGGVIAAFAEGHINAKNPIPNQLSRLLMLLRSTSTLRGNGPLLLKRSIKKEWSARTVLGKAEGNESFDVVRHPTTTMKGNKMFLLAGSTALSDLNGSWKEGSLEIKLVVGEVTKPTDSEQSKRIEWGEIKSPLNGSTLAAHKGNLTECLASGGSGVLMEDGTLVFSLMAVNEKNDGVYSMIIYSKDNGSTWALSEDISPAKCLNPRITEWEGSLLMIVDCENDQRV”, for which the “soluble on expression in E. coli” value is “not soluble”. For the sequence “GTENLYFQGMSDVIEGRLKELGFTLPVAAAPAANYVPFTISGNLLYVSGQLPMESGKIAVTGLVGRDVDVASAQRAAELCAVNILAQVKAALNGDLSKIRRVIKLNGFVASVPEFVEQHLVINGASNLIATVLGEPGRHARAAVGMASLPFNASVEIDAIVEIDV”, the “soluble on expression in E. coli” value is listed as “soluble”. In the case of “MSLTKSYAEEQKRSVSEKLLKEKKLSLILDLDGTIVFTNPELCIPLESEEEPITPEQGFYFEIPEQNAKVFIRFRDGIVTFMEKVSKLYDIHVVTLGQKEYAFAIVNAINKLRNIPFITGDLVTAEDCSSVIVCDEKDTNDGLIDREETNERRSVKRSIPTMGKEEMQVIVDDRIDVWDNKNVVQICEYVPSTNQVDTELVRVTEVLQNIYTKFYDEHIEDVKEILHLFRKKILENKNLYFNREGHHHHHH”, the “soluble on expression in E. coli” value was “soluble”.

As for “MTLHKPTQAVPCRAPKVGRLIYTAGGYFRQSLSYLEAYNPSNGSWLRLADLQVPRSGLAGCVVGGLLYAVGGRNNSPDGNTDSSALDCYNPMTNQWSPCASMSVPRNRIGVGVIDGHIYAVGGSHGCIHHSSVERYEPERDEWHLVAPMLTRRIGVGVAVLNRLLYAVGGFDGTNRLNSAECYYPERNEWRMITPMNTIRSGAGVCVLHNCIYAAGGYDGQDQLNSVERYDVETETWTFVAPMRHHRSALGITVHQGKIYVLGGYDGHTFLDSVECYDPDSDTWSEVTRMTSGRSGVGVAVTMEPCRKQIDQQNCTCY”, the “soluble on expression in E. coli” value is recorded as “soluble”. Turning to “MDRLKAMQVFVEVADRGSLSAAAMHLGMSRAMVSRYLAELEAWVGVRLLHRTTRRLSLTPAGSETLPRCRRMLEMVGDMREAVAAPDAEPRGLLRVTAAMSFGGAQLAEAVAEFVRRHPAASIDLLLVDRAVNLVEERVDLAVRITNDLDPNLIGRRLADCRSVVCAAPQYLQQHGAPARAEDLSLHNCLTHSYFGRSLWRFERAGEPVEVPVGGNITANETDVLMRAALAGAGIVMLPTYLAAGQIAAGTLRPLLPDCAPPVLGIHGVYVSRKQMPLILRTMLDFLAERFNPAPWDAALEGR”, the “soluble on expression in E. coli” value is given as “not soluble”.

Take “GPGSMPKSKRATIVPLTKTRSKTREEKDELINKIRDALDDYTDVYTFELSNIRTNILQQIREERRNDSRLFLGNNKLLMIALGRDDSSSQRPNLHKLSKYLTGSCGLLFTNLPHQDVKEYFKGVSADVFARTGQVATCPLLLRTGPLAQFPHSMFDHLSRLGLPIKLDKGVIVLLRDTTVCEVGDTLTAEAAQLLKLFGIQSAEFKLELTAHWAKGVVKRMSKKKKEEEN”: the “soluble on expression in E. coli” value is listed as “soluble”. On to “MQMESQRRDVFYVSDGTAITCETLGHVVLGQFAVQPNEKTFPFVESDEKLSELLKQIQRSYQLHGVKPLVFFSMVIPEMRTRLLQAPAHFYDVLESIVQRVSLDIEMEPAPKLQRSRSVGKDSDTYFDRIAAIEYTLAHDDGVSLKDLDRADIILLGVSRSGKTPTSLYMAMQFGLRVVNYPFIAEDMHAMRLLPEFEFHRHKLFGLTINAERLTEIRENRLAGSEYASNQQCQQELATVEALFRREAISYINTSSLSVEEISTRILERTGLKRRLF”, for which the “soluble on expression in E. coli” value is recorded as “not soluble”.

Take “MANSLRNVNDYDPFKYRPSYFDLEAPTESFALGKFVDAIEVKQMALDAFSESSMVSIATSQLPKTAYTATSFIESEYYSFPYLFNDQKYYWDYFDYKIPAADFAVLELELDLNNQQDQQIKDHFIDPAIKAYKQLGDSTGLFATKPLTEYQNDTHYLLGYPVVPTDHTQLWECKQGAERFSYGYFYSNMARLTKNLRQGDPNAGSKTHIEYSNELLDKDSMDQGIVRFSTFLGANINYHDYDYRQQGYGLTLTDTNLPGGSSGSLVFNQDKKISSIYSAATESDSVGYAQLLRTPRDVNGISVVSQSYDLIFGDSNTKRYYAMFAKKQQTHLYSEILKSTDEQYRYVVDKQFN”: the “soluble on expression in E. coli” value was “soluble”.

Consider “MNMIPKVAMFGTGYVGLVSGVCIADFGINVICVDVDKEKIDGLNNGKIPIYEPGLDVFLERNIKAGRIQFTTDAKMAIEESNVLFIAVGTPPKENGEADMQYVYAVAETIGQYMNGYKVIVDKSTVPVGTGQVVKKIIADKLKERGVEYSFDVVSNPEFLREGKALYDFTHPDRVVIGVESEEVAEIMKKVYRPLYINETPFVITNIETAEMIKYASNAFLATKITFINEIANLCEKVGANVQQVAMAMGRDGRIGPKFLHAGPGFGGSCFPKDTKALVQIAEKHGVQMSVVNAVIEANERQKKMVAEKLEKFAGDLKGKTIGILGLAFKPETDDVREAPALTIIADLIERGASIRAYDPQAMEEAKKALRKYADNITYCKHAYDTAESVDALVIVTEWHEFRNMDLTLLKKIMRGNIFYDARNIYSRKDIEEKGFVFIGTGV”, for which the “soluble on expression in E. coli” value is recorded as “not soluble”. Turning to “MSLADKRIGILVYDGVLTSDVTAPLEVFGVASRLTWFSDYEVLTISVSDQKTITTEEGLEIGVDAWIGDQPELDVLVLTSSYDMDALIENKDLIHFIQTTSKAADWMASNCSGAYLLAEAGLLNGKKATTWAGGENGLQKDYPAVDVQFNQNFVVDDGVITSNGSLVSYQAALKLLHLMTSESKAQEVADALQYSRFSTEGHHHHHH”, the “soluble on expression in E. coli” value is recorded as “soluble”. As for “MLCTVTEKLYYDDMYMKEFQAEVVSVDSNGIVLDRTAFYPTGGGQPNDTGIIVNDDKTYRVVDVQKHGDDVVHILESVDGLKAGDRIYGKIDWERRYAHMRYHTAIHILDGIVSAKHNSEALLTGGQIYEDRSRIDMNIENFTKEFVDQIIQEANEFISEGHRVYAENISREEAMKRPNLARTEPGRKLIESLPVVRIIVIEGLDEQSDGGTHVANTREVGKIVLRKIENKGRKNKRIEFELSPA”, the “soluble on expression in E. coli” value is “not soluble”.

As for “MEIEVVYQHSDFIIINKSEGISVHKDQEEQGLTELVAKQLNVPKVWLVHRLDKVTSGLLILALNAESAAEFSRLFSEHKIHKTYLALSNQKPKKKQGLIIGDMKKAREGAWKLCQTKDNPAITRFESVSCEPNLRLFILKPQTGKTHQLRVAMKSLGSPILGDGLYGKNTEKIDRTYLHATQLEFDYLNNFISVTCLPSQGQFWIKPTVFEQIQVYLTKPFLSKLEHHHHHH”, the “soluble on expression in E. coli” value is “soluble”. As to “EKPANRQQTLEILAQHIEMDGVRQFLSKSLFKNEDHMAWRFNVDSLLSNYAEIIGWQDIAPTEIPTLFIKGGDSDYLMPEHQPSVQRQFKQAKAHIIANTGHWLHAEKPAEVMRVIRKYISS”, the “soluble on expression in E. coli” value is “not soluble”. Regarding “GAMASSVLVTQEPEIELPREPRPNEECLQILGNAEKGAKFLSDAEIIQLVNAKHIPAYKLETLIETHERGVSIRRQLLSKKLSEPSSLQYLPYRDYNYSLVMGACCENVIGYMPIPVGVAGPLCLDEKEFQVPMATTEGCLVASTNRGCRAIGLGGGASSRVLADGMTRGPVVRLPRACDSAEVKAWLETSEGFAVIKEAFDSTSRFARLQKLHTSIAGRNLYIRFQSRSGDAMGMNMISKGTEKALSKLHEYFPEMQILAVSGNYCTDKKPAAINWIEGRGKSVVCEAVIPAKVVREVLKTTTEAMIEVNINKNLVGSAMAGSIGGYNAHAANIVTAIYIACGQDAAQNVGSSNCITLMEASGPTNEDLYISCTMPSIEIGTVGGGTNLLPQQACLQMLGVQGACKDNPGENARQLARIVCGTVMAGELSLMAALAAGHLVKSHMIHNRSKINLQDLQGACTKKTA”, the “soluble on expression in E. coli” value is recorded as “soluble”. In the case of “ACAWLEAQEEEEVGFPVRPQVPLRPMTYKAAVDLSHFLKEKGGLEGLIHSQRRQDILDLWIYHTQGYFPDWQNYTPGPGVRYPLTFGWCYKLVPVEPDKVEEANKGENTSLLHPVSLHGMDDPEREVLEWRFDSRLAFHHVARELHPEYFKN”, the “soluble on expression in E. coli” value is “soluble”.

Regarding “MRFEEEIGSLQMLCDQFQNKINTLEKQMNEEKKDYVQKLHRLHEKNGEAIDKMKQLDHTMQAVSTKVVHLGDQLESVDQPRSRAHDAHQLMQHFDEFLSDQPLNSMIFTDPDKLLESADLVHKLYSISQELNKDKFANVQARIGQRYKVVEDLLIEEFVRSQRDEKKMAEVAKILSEFKGYSGCVDRYVDFLCQSIHPRGDGGEILADCLQLCRTQQPRISAIFPSPHTVMQKLVLNIFTGRMKETITARLRECKDTDDQEHYLRDLAYLYSSTLKMCKELEKLHISPDSAFLSTLTDSIFQRYIATYCSEELKYLNDQCSNLLQRFYESKKHVKKQIGGGLHELKRDVAARLMNVETYGGETFVAEDVAISILQETKNAFGRANQLCDKEELPRHVENIVDVLLKYLYGEHLDYAVETGLAGISLAESKTEPPAYFFSVVAKCTSVILLMIKQFEDPIFPIIKETIVEPSVAKKWQQSLRSLESKMSLGLERQLNSIVGYVKFLFSEQKKTDFRPDSQQIDIRVSPQCQLASRFLANQVAAMELGCDGENLEALQSDLATRLFKFMLTHIQQFTYNSTGAVLLLCDVGELRTLVSKWRVQNALTQWESLQALTNLLAVLPDQVNETAHSSLLENVDRQLIHDFVRLRTDFRSIKNFQI”, the “soluble on expression in E. coli” value is “not soluble”.
